Measurements as given in patent publication US20250043302A1, “MUTATED HYDROXYPHENYLPYRUVATE DIOXYGENASE POLYPEPTIDE, AND CODING GENE AND USE THEREOF” (BEIJING DABEINONG BIOTECHNOLOGY CO., LTD., priority 2021, published 2025).

Tests used:
Type in all cases: in vivo
[1] = tested on: Arabidopsis thaliana T1 plants; experiment: Topramezone tolerance of transgenic Arabidopsis thaliana T1 plants (spray, bleached leaf area grade, damage score); settings: 7 DAT, Table 4; for Classification and statistics of the grade of pesticide damage: Grade 0 / Classification and statistics of the grade of pesticide damage: Grade 1 / Classification and statistics of the grade of pesticide damage: Grade 2 / Classification and statistics of the grade of pesticide damage: Grade 3: number of plants; for Scores: pesticide damage score 0-100
Summary of the method: (§1)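 T1 transformants selected by glufosinate; 18-day-old plants, with empty-vector and wild-type controls, sprayed with topramezone (25–200 g ai/ha), isoxaflutole (35–280 g ai/ha) or mesotrione (52.5–420 g ai/ha), water as 0×. Bleached leaf area fraction scored at 7 DAT as grades 0–3.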

[2] = tested on: Arabidopsis thaliana T1 plants; experiment: Mesotrione tolerance of transgenic Arabidopsis thaliana T1 plants (spray, bleached leaf area grade, damage score); parameters: Scores: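 damage score 0-100 computed as Σ(N×S)/(T×M)×100 over grades 0-3 with higher meaning more damage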; settings: Arabidopsis thaliana T1 plants; for Grade 0 (classification and statistics of the grade of pesticide damage; number of plants) / Grade 1 (classification and statistics of the grade of pesticide damage; number of plants) / Grade 2 (classification and statistics of the grade of pesticide damage; number of plants) / Grade 3 (classification and statistics of the grade of pesticide damage; number of plants): 16 plants
Summary of the method: as §1

[3] = tested on: Arabidopsis thaliana T1 plants; experiment: Isoxaflutole tolerance of transgenic Arabidopsis thaliana T1 plants (spray, bleached leaf area grade, damage score); parameters: Scores (pesticide damage): scale not given here; settings: spray, Arabidopsis thaliana T1 plants; for Classification and statistics of the grade of pesticide damage: Grade 0 (number of plants) / Classification and statistics of the grade of pesticide damage: Grade 1 (number of plants) / Classification and statistics of the grade of pesticide damage: Grade 2 (number of plants) / Classification and statistics of the grade of pesticide damage: Grade 3 (number of plants): 16 plants
Summary of the method: as §1

[4] = isoxaflutole 35 g ai/ha (0.5x field concentration)
[5] = isoxaflutole 70 g ai/ha (1x field concentration)

B1: MsHPPDm-F372A-02: nucleotide sequence encoding Medicago sativa HPPD with F372A; vector DBN11735 (nucleic acid)
DNA: ATGGCTATTGAAACCGAAACACAAACTCAGACTGGATTTAAACTGGTAGGGTTCAAGAATTTCGTTAGGGCTAATCCCAAGTCTGATCGTTTTAAGGTCAAGAGGTTCCACCACGTGGAGTTCTGGTGCACTGATGCAACCAACACGGCGCGGCGTTTTTCACATGGTCTTGGAATGCCTATTGTTGCAAAATCCGACCTCTCCACGGGGAACCAAACACACGCCTCTTACCTGCTACGGAGTGGTGACTTGAACTTCCTCTTCAGCGCCGCCTACTCACCCTCCATATCGTTGTCTTCACCATCCTCGACCGCAGCAATTCCTACATTTTCTGCGAGCAACTGCTTCTCTTTCTCTGCCAGTCATGGCCTCGCCGTCAGAGCAGTGGCCGTTGAAGTAGAGGATGCTGAACTTGCTTTTACAACTTCAGTGAATAATGGAGCAATACCGAGCAGTCCGCCGGTCATACTTGAGAATCATGTGAAGCTAGCGGAGGTGAGGCTTTATGGGGACGTCGTTTTAAGATATGTCAGCTACAATGATCCAAACCCCAATCAAAATCCAAATTTGTTGTTCCTTCCTGGCTTCGAGCGTGTTAGCGATGAATCTTCAAACTCTTCACTGGATTTTGGAATCAGACGGTTGGATCATGCTGTTGGAAATGTTCCTGAACTCTCGAGCGCTGTGAAATATGTGAAGGACTTCACCGGTTTTCATGAATTTGCTGAGTTTACTGCAGAAGATGTGGGTACATCAGAGAGTGGCTTGAATTCCGTGGTGCTCGCCAACAACGAGGAGACTGTACTCTTACCAATGAATGAGCCAGTCTATGGCACCAAGCGTAAATCTCAAATTGAGACATATTTGGAGCACAATGAAGGAGCTGGACTTCAGCATCTCGCGCTGAAGAGTGAGGACATCTTCCGCACCCTACGGGAGATGAGGAAAAGAAGTGGTGTTGGTGGGTTTGAATTCATGCCATCACCTCCTGTCACCTACTACAGGAACCTGAAGAACAGAGTTGGTGATGTACTTTCGGACGAGCAGATAAAGGAATGTGAAGAGTTGGGGATTTTGGTTGATAGAGATGATCAAGGAACACTCCTGCAGATTGCCACAAAACCAATTGGCGACCGCCCCACTATCTTCATAGAGATCATCCAGAGGGTGGGGTGCATGCTCAAAGACGAGGAAGGGAAGGAGTACCAGAAGGGCGGCTGTGGTGGTTTTGGGAAAGGAAACTTTTCTGAGTTATTCAAATCAATTGAAGAGTATGAGAAGACGCTTGAAACGCGTCGCACTGCTTGA
modifications: MsHPPDm-F372A-02 Nucleotide Sequence
notes: vector DBN11735
[1]; topramezone 25 g ai/ha (1×)
  Classification and statistics of the grade of pesticide damage: Grade 0: 5
  Classification and statistics of the grade of pesticide damage: Grade 1: 7
  Classification and statistics of the grade of pesticide damage: Grade 2: 4
  Classification and statistics of the grade of pesticide damage: Grade 3: 0
  Scores: 31
  Resistance evaluation: moderately
[1]; topramezone 100 g ai/ha (4×)
  Classification and statistics of the grade of pesticide damage: Grade 0: 0
  Classification and statistics of the grade of pesticide damage: Grade 1: 4
  Classification and statistics of the grade of pesticide damage: Grade 2: 9
  Classification and statistics of the grade of pesticide damage: Grade 3: 3
  Scores: 65
  Resistance evaluation: poorly
[2]; mesotrione 52.5 g ai/ha
  Resistance evaluation: Poorly resistant
  Scores: 52
  Grade 0 (classification and statistics of the grade of pesticide damage; number of plants): 0
  Grade 1 (classification and statistics of the grade of pesticide damage; number of plants): 9
  Grade 2 (classification and statistics of the grade of pesticide damage; number of plants): 5
  Grade 3 (classification and statistics of the grade of pesticide damage; number of plants): 2
[2]; mesotrione 105 g ai/ha
  Resistance evaluation: Non-resistant
  Scores: 100
  Grade 0 (classification and statistics of the grade of pesticide damage; number of plants): 0
  Grade 1 (classification and statistics of the grade of pesticide damage; number of plants): 0
  Grade 2 (classification and statistics of the grade of pesticide damage; number of plants): 0
  Grade 3 (classification and statistics of the grade of pesticide damage; number of plants): 16
[3]; [4]
  Resistance evaluation: Poorly
  Scores (pesticide damage): 54
  Classification and statistics of the grade of pesticide damage: Grade 0 (number of plants): 0
  Classification and statistics of the grade of pesticide damage: Grade 1 (number of plants): 6
  Classification and statistics of the grade of pesticide damage: Grade 2 (number of plants): 10
  Classification and statistics of the grade of pesticide damage: Grade 3 (number of plants): 0
[3]; [5]
  Resistance evaluation: Non-resistant
  Scores (pesticide damage): 100
  Classification and statistics of the grade of pesticide damage: Grade 0 (number of plants): 0
  Classification and statistics of the grade of pesticide damage: Grade 1 (number of plants): 0
  Classification and statistics of the grade of pesticide damage: Grade 2 (number of plants): 0
  Classification and statistics of the grade of pesticide damage: Grade 3 (number of plants): 16
